Source: patent publication US20230406950A1 (LYVGEN BIOPHARMA, published 2023)

Assays:
[1] = molecular target: T1, human PD-1 expressed on cells (human, UniProt Q15116 25-288); test: flow cytometry (FACS), MFI, CHO cells expressing human PD-1
T1 construct: whole, on cells; also called human PD-1 over-expressed on the CHO cells; Jurkat/NFkB-Luci/PD-1 cells
Protocol: (§1) Exemplary anti-PD-1/CD137 bi-specific antibodies were analyzed by FACS for their binding properties to human PD-1 and/or human CD137 expressed on CHO cells. Briefly, cultured cells were harvested, counted and cell viability was evaluated using the Trypan Blue exclusion method. Viable cells were then adjusted to 2×10⁶ cells per mL in PBS containing 2% BSA. 100 μL of this cell suspension were further aliquoted per well into a V-bottom 96-well plate. […] After incubation for 2 hours at 4° C., cells were centrifuged (3 min, 1000× g), washed with 250 μL/well BSA-containing FACS Stain Buffer, resuspended and incubated for an additional 1 hour at 4° C. with 100 μL/well fluorochrome-conjugated anti-IgG antibody for detection of the bisepecific antibody. Cells were then washed with 250 μL/well BSA-containing FACS Stain Buffer, resuspended in 100 μL/well FACS Stain Buffer, acquired and analyzed using a FACS machine. Binding of the bispecific antibodies to human PD-1 or human CD137 expressing CHO cells were evaluated and the mean fluorescence intensity is plotted in histograms or dot plots.

[2] = molecular target: T2, human CD137 ECD protein (His tag) (human, UniProt Q07011 24-186); test: bridging ELISA: human CD137 ECD (His tag) coated, antibody titrated, then human PD-1 ECD (mouse IgG2a Fc tag), HRP anti-mouse IgG2a Fc; A450-A620
T2 construct: extracellular domain; also called recombinant human CD137; not shown: His tag
Protocol: Exemplary anti-PD-1/CD137 bi-specific antibodies were analyzed by ELISA for their simultaneous binding to recombinant human PD-1 and human CD137. Briefly, human CD137 ECD protein (His tag) was diluted and coated onto an ELISA plate with a volume of 100 μL/well by incubation at 4° C. overnight. The next day, the plate was blocked with PBST-BSA buffer, then serially diluted samples of anti-PD-1/CD137 bi-specific antibodies were pipetted into appropriate wells at 50 μL/well, and the plate was incubated for 1 hour followed by washing. The extracellular domain (ECD) of human PD-1 protein (mouse IgG2a Fc tag) was added into the plate at 50 μL/well. After 1-hour incubation at room temperature, HRP-conjugated anti-Mouse IgG, Fc G2a specific antibody was added into the plate at 100 μL/well. The plate was incubated for 1 hour at room temperature followed by washing. TMB substrate solution was added at 100 μL/well and the color development was stopped by adding 100 uL/well Stop Solution (2N H₂SO₄). Absorbance at 450 nm and 620 nm was read by Tecan F200 Pro plate reader. GraphPad 7.0, “[Agonist] vs. response—Variable slope (four parameters)” was used to plot the binding data and calculate binding EC50 values.

[3] = molecular target: T3, human CD137 expressed on cells (human, UniProt Q07011 24-255); test: flow cytometry (FACS), MFI, CHO cells expressing human CD137
T3 construct: whole, on cells; also called 4-1BB; TNFRSF9
Protocol: as §1

T3 sequence (Q07011 24-255): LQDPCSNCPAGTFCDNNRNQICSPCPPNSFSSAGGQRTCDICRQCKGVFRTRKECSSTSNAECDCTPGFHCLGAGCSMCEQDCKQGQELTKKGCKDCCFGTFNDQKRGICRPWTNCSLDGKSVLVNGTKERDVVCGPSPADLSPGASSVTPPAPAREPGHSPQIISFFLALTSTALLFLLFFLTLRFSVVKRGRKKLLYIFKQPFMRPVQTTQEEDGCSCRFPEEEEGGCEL
T1 sequence (Q15116 25-288): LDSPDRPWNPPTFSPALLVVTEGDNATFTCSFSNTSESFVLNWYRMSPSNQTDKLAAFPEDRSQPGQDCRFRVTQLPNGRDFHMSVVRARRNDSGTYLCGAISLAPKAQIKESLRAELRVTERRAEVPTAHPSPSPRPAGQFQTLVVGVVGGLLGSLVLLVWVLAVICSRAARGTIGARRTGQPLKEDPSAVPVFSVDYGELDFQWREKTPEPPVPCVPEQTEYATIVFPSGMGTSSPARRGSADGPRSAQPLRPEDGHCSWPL

B1: Ly511 (bispecific antibody, human IgG2, kappa)
heavy: QVTLKESGPALVKPTQTLTLTCTFSGFSLSTSGTCVSWIRQPPGKALEWLATICWEDSKGYNPSLKSRLTISKDTSKNQAVLTMTNMDPVDTATYYCARREDSGYFWFPYWGQGTLVTVSSASTKGPSVFPLAPCSRSTSESTAALGCLVKDYFPEPVTVSWNSGALTSGVHTFPAVLQSSGLYSLSSVVTVPSSNFGTQTYTCNVDHKPSNTKVDKTVERKCCVECPPCPAPPVAPSVFLFPPKPKDTLMISRTPEVTCVVVDVSHEDPEVQFNWYVDGVEVHNAKTKPREEQFNSTFRVVSVLTVVHQDWLNGKEYKCKVSNKGLPAPIEKTISKTKGQPREPQVYTLPPSREEMTKNQVSLTCLVKGFYPSDIAVEWESNGQPENNYKTTPPMLDSDGSFFLYSKLTVDKSRWQQGNVFSCSVMHEALHNHYTQKSLSLSPGGGGGSGGGGSGGGGSGGGGSQVQLVQSGAEVKKPGASVKVSCKASGYTFAGFEMHWVRQAPGQGLEWMGAIDPKTGGTDYNQKFKDRVTMTRDTSISTAYMELSRLRSDDTAVYYCARDLGYFDVWGQGTLVTVSSGGGGSGGGGSGGGGSGGGGSDIQMTQSPSSLSASVGDRVTITCRASQDIRSNLNWYQQKPGGAVKLLIYYTSRLHSGVPSRFSGSGSGTDYTLTISSLQPEDFATYFCQQSEKLPRTFGGGTKVEIR
light: NIQMTQSPSSLSASVGDRVTITCKAGQNVNNYLAWYQQKPGKAPKVLIFNANSLQTGVPSRFSGSGSGTDFTLTISSLQPEDFATYYCQQYNSWPTFGGGTKVEIKRTVAAPSVFIFPPSDEQLKSGTASVVCLLNNFYPREAKVQWKVDNALQSGNSQESVTEQDSKDSTYSLSSTLTLSKADYEKHKVYACEVTHQGLSSPVTKSFNRGEC
notes: Anti-PD-1/CD137: Ly516 heavy chain fused to Ly1630 scFv (VH-VL); Ly516 light chain
[1]
  EC50 (read off the curve): ~0.2 µg/mL
[2]
  EC50 (read off the curve): ~0.02 µg/mL
[3]
  EC50 (read off the curve): ~0.2 µg/mL

B2: Ly457 (bispecific antibody, human IgG1, kappa)
heavy: QVTLKESGPALVKPTQTLTLTCTFSGFSLSTSGTCVSWIRQPPGKALEWLATICWEDSKGYNPSLKSRLTISKDTSKNQAVLTMTNMDPVDTATYYCARREDSGYFWFPYWGQGTLVTVSSASTKGPSVFPLAPSSKSTSGGTAALGCLVKDYFPEPVTVSWNSGALTSGVHTFPAVLQSSGLYSLSSVVTVPSSSLGTQTYICNVNHKPSNTKVDKKVEPKSCDKTHTCPPCPAPELLGPSVFLFPPKPKDTLMISRTPEVTCVVVDVSHEDPEVKFNWYVDGVEVHNAKTKPREEQYNSTYRVVSVLTVLHQDWLNGKEYKCKVSNKALPAPIEKTISKAKGQPREPQVYTLPPSREEMTKNQVSLTCLVKGFYPSDIAVEWESNGQPENNYKTTPPVLDSDGSFFLYSKLTVDKSRWQQGNVFSCSVMHEALHNHYTQKSLSLSPGGGGGSGGGGSGGGGSGGGGSQVQLVQSGAEVKKPGASVKVSCKASGYTFAGFEMHWVRQAPGQGLEWMGAIDPKTGGTDYNQKFKDRVTMTRDTSISTAYMELSRLRSDDTAVYYCARDLGYFDVWGQGTLVTVSSGGGGSGGGGSGGGGSGGGGSDIQMTQSPSSLSASVGDRVTITCRASQDIRSNLNWYQQKPGGAVKLLIYYTSRLHSGVPSRFSGSGSGTDYTLTISSLQPEDFATYFCQQSEKLPRTFGGGTKVEIR
light: NIQMTQSPSSLSASVGDRVTITCKAGQNVNNYLAWYQQKPGKAPKVLIFNANSLQTGVPSRFSGSGSGTDFTLTISSLQPEDFATYYCQQYNSWPTFGGGTKVEIKRTVAAPSVFIFPPSDEQLKSGTASVVCLLNNFYPREAKVQWKVDNALQSGNSQESVTEQDSKDSTYSLSSTLTLSKADYEKHKVYACEVTHQGLSSPVTKSFNRGEC
notes: as for B1
[1]
  EC50 (read off the curve): ~0.2 µg/mL
[2]
  EC50 (read off the curve): ~0.02 µg/mL
[3]
  EC50 (read off the curve): ~0.2 µg/mL

B3: Ly458 (bispecific antibody, human IgG1, kappa)
heavy: QVTLKESGPALVKPTQTLTLTCTFSGFSLSTSGTCVSWIRQPPGKALEWLATICWEDSKGYNPSLKSRLTISKDTSKNQAVLTMTNMDPVDTATYYCARREDSGYFWFPYWGQGTLVTVSSASTKGPSVFPLAPSSKSTSGGTAALGCLVKDYFPEPVTVSWNSGALTSGVHTFPAVLQSSGLYSLSSVVTVPSSSLGTQTYICNVNHKPSNTKVDKKVEPKSCDKTHTCPPCPAPELLGPSVFLFPPKPKDTLMISRTPEVTCVVVDVSHEDPEVKFNWYVDGVEVHNAKTKPREEQYNSTYRVVSVLTVLHQDWLNGKEYKCKVSNKALPAPIEKTISKAKGQPREPQVYTLPPSREEMTKNQVSLTCLVKGFYPSDIAVEWESNGQPENNYKTTPPVLDSDGSFFLYSKLTVDKSRWQQGNVFSCSVMHEALHNHYTQKSLSLSPGK
light: NIQMTQSPSSLSASVGDRVTITCKAGQNVNNYLAWYQQKPGKAPKVLIFNANSLQTGVPSRFSGSGSGTDFTLTISSLQPEDFATYYCQQYNSWPTFGGGTKVEIKRTVAAPSVFIFPPSDEQLKSGTASVVCLLNNFYPREAKVQWKVDNALQSGNSQESVTEQDSKDSTYSLSSTLTLSKADYEKHKVYACEVTHQGLSSPVTKSFNRGECGGGGSGGGGSGGGGSGGGGSDIQMTQSPSSLSASVGDRVTITCRASQDIRSNLNWYQQKPGGAVKLLIYYTSRLHSGVPSRFSGSGSGTDYTLTISSLQPEDFATYFCQQSEKLPRTFGGGTKVEIRGGGGSGGGGSGGGGSGGGGSQVQLVQSGAEVKKPGASVKVSCKASGYTFAGFEMHWVRQAPGQGLEWMGAIDPKTGGTDYNQKFKDRVTMTRDTSISTAYMELSRLRSDDTAVYYCARDLGYFDVWGQGTLVTVSS
notes: Anti-PD-1/CD137: Ly516 heavy chain; Ly516 light chain fused to Ly1630 scFv (VL-VH)
[1]
  EC50 (read off the curve): ~0.2 µg/mL
[2]
  EC50 (read off the curve): ~0.02 µg/mL
[3]
  EC50 (read off the curve): ~0.2 µg/mL

B4: Ly513 (bispecific antibody, human IgG2, kappa)
heavy: QVTLKESGPALVKPTQTLTLTCTFSGFSLSTSGTCVSWIRQPPGKALEWLATICWEDSKGYNPSLKSRLTISKDTSKNQAVLTMTNMDPVDTATYYCARREDSGYFWFPYWGQGTLVTVSSASTKGPSVFPLAPCSRSTSESTAALGCLVKDYFPEPVTVSWNSGALTSGVHTFPAVLQSSGLYSLSSVVTVPSSNFGTQTYTCNVDHKPSNTKVDKTVERKCCVECPPCPAPPVAPSVFLFPPKPKDTLMISRTPEVTCVVVDVSHEDPEVQFNWYVDGVEVHNAKTKPREEQFNSTFRVVSVLTVVHQDWLNGKEYKCKVSNKGLPAPIEKTISKTKGQPREPQVYTLPPSREEMTKNQVSLTCLVKGFYPSDIAVEWESNGQPENNYKTTPPMLDSDGSFFLYSKLTVDKSRWQQGNVFSCSVMHEALHNHYTQKSLSLSPGK
light: NIQMTQSPSSLSASVGDRVTITCKAGQNVNNYLAWYQQKPGKAPKVLIFNANSLQTGVPSRFSGSGSGTDFTLTISSLQPEDFATYYCQQYNSWPTFGGGTKVEIKRTVAAPSVFIFPPSDEQLKSGTASVVCLLNNFYPREAKVQWKVDNALQSGNSQESVTEQDSKDSTYSLSSTLTLSKADYEKHKVYACEVTHQGLSSPVTKSFNRGECGGGGSGGGGSGGGGSGGGGSQVQLVQSGAEVKKPGASVKVSCKASGYTFAGFEMHWVRQAPGQGLEWMGAIDPKTGGTDYNQKFKDRVTMTRDTSISTAYMELSRLRSDDTAVYYCARDLGYFDVWGQGTLVTVSSGGGGSGGGGSGGGGSGGGGSDIQMTQSPSSLSASVGDRVTITCRASQDIRSNLNWYQQKPGGAVKLLIYYTSRLHSGVPSRFSGSGSGTDYTLTISSLQPEDFATYFCQQSEKLPRTFGGGTKVEIR
notes: Anti-PD-1/CD137: Ly516 heavy chain; Ly516 light chain fused to Ly1630 scFv (VH-VL)
[1]
  EC50 (read off the curve): ~0.1 µg/mL
[2]
  EC50 (read off the curve): ~0.03 µg/mL
[3]
  EC50 (read off the curve): ~0.2 µg/mL

B5: Ly459 (bispecific antibody, human IgG1, kappa)
heavy: QVTLKESGPALVKPTQTLTLTCTFSGFSLSTSGTCVSWIRQPPGKALEWLATICWEDSKGYNPSLKSRLTISKDTSKNQAVLTMTNMDPVDTATYYCARREDSGYFWFPYWGQGTLVTVSSASTKGPSVFPLAPSSKSTSGGTAALGCLVKDYFPEPVTVSWNSGALTSGVHTFPAVLQSSGLYSLSSVVTVPSSSLGTQTYICNVNHKPSNTKVDKKVEPKSCDKTHTCPPCPAPELLGPSVFLFPPKPKDTLMISRTPEVTCVVVDVSHEDPEVKFNWYVDGVEVHNAKTKPREEQYNSTYRVVSVLTVLHQDWLNGKEYKCKVSNKALPAPIEKTISKAKGQPREPQVYTLPPSREEMTKNQVSLTCLVKGFYPSDIAVEWESNGQPENNYKTTPPVLDSDGSFFLYSKLTVDKSRWQQGNVFSCSVMHEALHNHYTQKSLSLSPGK
light: NIQMTQSPSSLSASVGDRVTITCKAGQNVNNYLAWYQQKPGKAPKVLIFNANSLQTGVPSRFSGSGSGTDFTLTISSLQPEDFATYYCQQYNSWPTFGGGTKVEIKRTVAAPSVFIFPPSDEQLKSGTASVVCLLNNFYPREAKVQWKVDNALQSGNSQESVTEQDSKDSTYSLSSTLTLSKADYEKHKVYACEVTHQGLSSPVTKSFNRGECGGGGSGGGGSGGGGSGGGGSQVQLVQSGAEVKKPGASVKVSCKASGYTFAGFEMHWVRQAPGQGLEWMGAIDPKTGGTDYNQKFKDRVTMTRDTSISTAYMELSRLRSDDTAVYYCARDLGYFDVWGQGTLVTVSSGGGGSGGGGSGGGGSGGGGSDIQMTQSPSSLSASVGDRVTITCRASQDIRSNLNWYQQKPGGAVKLLIYYTSRLHSGVPSRFSGSGSGTDYTLTISSLQPEDFATYFCQQSEKLPRTFGGGTKVEIR
notes: as for B4
[1]
  EC50 (read off the curve): ~0.2 µg/mL
[2]
  EC50 (read off the curve): ~0.02 µg/mL
[3]
  EC50 (read off the curve): ~0.2 µg/mL
